The series addresses T1, Phi29 DNA polymerase (Bacillus phage phi29) (UniProt P03680).
T1 sequence: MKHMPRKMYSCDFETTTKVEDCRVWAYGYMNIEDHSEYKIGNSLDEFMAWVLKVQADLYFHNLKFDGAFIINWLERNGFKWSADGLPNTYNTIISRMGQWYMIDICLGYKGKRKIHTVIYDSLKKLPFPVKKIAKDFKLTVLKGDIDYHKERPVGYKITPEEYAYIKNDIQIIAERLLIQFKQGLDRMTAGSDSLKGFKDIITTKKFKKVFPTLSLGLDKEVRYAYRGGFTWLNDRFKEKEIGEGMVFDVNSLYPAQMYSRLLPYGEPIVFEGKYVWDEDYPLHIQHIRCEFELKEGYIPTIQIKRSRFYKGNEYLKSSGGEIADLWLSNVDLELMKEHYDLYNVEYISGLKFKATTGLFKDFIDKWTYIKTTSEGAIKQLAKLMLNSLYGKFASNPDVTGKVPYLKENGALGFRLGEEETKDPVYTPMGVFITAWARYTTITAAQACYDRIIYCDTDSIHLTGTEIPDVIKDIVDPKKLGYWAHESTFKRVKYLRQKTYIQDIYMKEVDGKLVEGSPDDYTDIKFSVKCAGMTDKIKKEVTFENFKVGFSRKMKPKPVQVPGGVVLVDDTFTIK
In words: cleavage_in_vitro. The settings on record: Tango buffer, 37 C, 3 h; Mg2+, Mn2+ or Co2+ required; scale: % increase in acid-soluble product vs no enzyme.

Regarding [3H]poly(A) RNA, the activity is 30.

For the origin of these results see patent US20090202993.
